Laboratory results taken from article PMC9482650, “Quantitative fragmentomics allow affinity mapping of interactomes” (Nature Communications, 2022).
Each block holds one binder with its values, some of them ahead of it.

How the values were obtained:
Assay in all cases: holdup assay
Design in all cases: key: below the threshold = too weak to quantify, mostly under pKd 3.1 to 4
APBA3_1, O96018 = target: T1, APBA3_1, O96018
T1 sequence (O96018 389-490, limits assumed, looked up): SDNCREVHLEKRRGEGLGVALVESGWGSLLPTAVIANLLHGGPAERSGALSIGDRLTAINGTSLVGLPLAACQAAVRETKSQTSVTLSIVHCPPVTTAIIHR

GIPC2, Q8TF65 = target: GIPC2, Q8TF65
DLG2_1, Q15700 = details: plain residues with an end cap or a label only (N-terminal biotin on a linker: ttds)
DLG5_2, Q8TDM6 = details: plain residues with an end cap or a label only (N-terminal biotin on a linker: ttds)
DVL2, O14641 = details: plain residues with an end cap or a label only (N-terminal biotin on a linker: ttds)
GIPC3, Q8TF64 = details: plain residues with an end cap or a label only (N-terminal biotin on a linker: ttds)
GRIP2_2, Q9C0E4 = details: plain residues with an end cap or a label only (N-terminal biotin on a linker: ttds)
LMO7, Q8WWI1 = details: plain residues with an end cap or a label only (N-terminal biotin on a linker: ttds)
MAGI1_3, Q96QZ7 = details: plain residues with an end cap or a label only (N-terminal biotin on a linker: ttds)
MAGI3_4, Q5TCQ9 = details: plain residues with an end cap or a label only (N-terminal biotin on a linker: ttds)
MAGI3_6, Q5TCQ9 = details: plain residues with an end cap or a label only (N-terminal biotin on a linker: ttds)
MAST3, O60307 = details: plain residues with an end cap or a label only (N-terminal biotin on a linker: ttds)
MPDZ_11, O75970 = target: T2, MPDZ_11, O75970; details: plain residues with an end cap or a label only (N-terminal biotin on a linker: ttds)
T2 sequence (O75970 1720-1817, limits assumed, looked up): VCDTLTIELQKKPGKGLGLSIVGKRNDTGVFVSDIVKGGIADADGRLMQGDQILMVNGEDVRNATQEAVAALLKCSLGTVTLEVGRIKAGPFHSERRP

MPDZ_3, O75970 = target: T3, MPDZ_3, O75970; details: plain residues with an end cap or a label only (N-terminal biotin on a linker: ttds)
T3 sequence (O75970 372-473, limits assumed, looked up): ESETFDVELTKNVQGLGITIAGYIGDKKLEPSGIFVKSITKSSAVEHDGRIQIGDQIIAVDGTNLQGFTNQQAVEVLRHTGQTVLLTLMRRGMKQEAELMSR

MPP5, Q8N3R9 = target: T4, MPP5, Q8N3R9; details: plain residues with an end cap or a label only (N-terminal biotin on a linker: ttds)
T4 sequence (Q8N3R9 251-346, limits assumed, looked up): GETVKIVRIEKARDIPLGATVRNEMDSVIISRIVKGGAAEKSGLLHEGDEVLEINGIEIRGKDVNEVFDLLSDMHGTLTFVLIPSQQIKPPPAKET

PARD3_1, Q8TEW0 = details: plain residues with an end cap or a label only (N-terminal biotin on a linker: ttds)
PARD6G, Q9BYG4 = target: T5, PARD6G, Q9BYG4; details: plain residues with an end cap or a label only (N-terminal biotin on a linker: ttds)
T5 sequence (Q9BYG4 153-261, limits assumed, looked up): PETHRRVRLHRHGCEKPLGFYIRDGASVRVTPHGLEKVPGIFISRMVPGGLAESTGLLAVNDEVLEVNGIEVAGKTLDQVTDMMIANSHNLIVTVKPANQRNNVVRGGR

PDZD2_6, O15018 = target: T6, PDZD2_6, O15018; details: plain residues with an end cap or a label only (N-terminal biotin on a linker: ttds)
T6 sequence (O15018 2745-2839, limits assumed, looked up): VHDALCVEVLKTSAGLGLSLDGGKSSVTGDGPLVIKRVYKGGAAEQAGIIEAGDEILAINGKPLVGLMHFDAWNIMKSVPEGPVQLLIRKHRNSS

PDZD7_2, Q9H5P4 = target: T7, PDZD7_2, Q9H5P4; details: plain residues with an end cap or a label only (N-terminal biotin on a linker: ttds)
T7 sequence (Q9H5P4 205-303, limits assumed, looked up): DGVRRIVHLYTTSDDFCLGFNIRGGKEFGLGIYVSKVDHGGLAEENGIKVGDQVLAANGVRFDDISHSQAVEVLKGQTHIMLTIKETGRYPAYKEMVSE

PTPN13_4, Q12923 = target: T8, PTPN13_4, Q12923; details: plain residues with an end cap or a label only (N-terminal biotin on a linker: ttds)
T8 sequence (Q12923 1783-1878, limits assumed, looked up): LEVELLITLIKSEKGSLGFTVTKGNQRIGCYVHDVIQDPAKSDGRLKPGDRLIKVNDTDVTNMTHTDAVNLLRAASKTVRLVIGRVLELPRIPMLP

PTPN13_5, Q12923 = target: T9, PTPN13_5, Q12923; details: plain residues with an end cap or a label only (N-terminal biotin on a linker: ttds)
T9 sequence (Q12923 1877-1975, limits assumed, looked up): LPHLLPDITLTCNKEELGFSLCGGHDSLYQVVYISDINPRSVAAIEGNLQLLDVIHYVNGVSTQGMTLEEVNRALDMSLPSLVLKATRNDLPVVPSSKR

SCRIB_4, Q14160 = details: plain residues with an end cap or a label only (N-terminal biotin on a linker: ttds)
SHROOM3, Q8TF72 = target: T10, SHROOM3, Q8TF72; details: plain residues with an end cap or a label only (N-terminal biotin on a linker: ttds)
T10 sequence (Q8TF72 20-120, limits assumed, looked up): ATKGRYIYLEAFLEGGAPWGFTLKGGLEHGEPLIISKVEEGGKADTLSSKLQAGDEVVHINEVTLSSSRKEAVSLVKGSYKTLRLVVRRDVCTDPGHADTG

TJP1_1, Q07157 = details: plain residues with an end cap or a label only (N-terminal biotin on a linker: ttds)
USH1C_1, Q9Y6N9 = target: T11, USH1C_1, Q9Y6N9; details: plain residues with an end cap or a label only (N-terminal biotin on a linker: ttds)
T11 sequence (Q9Y6N9 82-179, limits assumed, looked up): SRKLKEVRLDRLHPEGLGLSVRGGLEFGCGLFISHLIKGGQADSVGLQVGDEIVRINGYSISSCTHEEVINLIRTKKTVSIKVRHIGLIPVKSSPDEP

[1] = plain residues with an end cap or a label only (N-terminal biotin on a linker: ahx)
[2] = plain residues with an end cap or a label only (N-terminal biotin on a linker: ttds)
[3] = plain residues with an end cap or a label only (N-terminal biotin on a linker: gsgsgs; C-terminal amide)

Chain of GIPC2, Q8TF65 (Q8TF65 112-203): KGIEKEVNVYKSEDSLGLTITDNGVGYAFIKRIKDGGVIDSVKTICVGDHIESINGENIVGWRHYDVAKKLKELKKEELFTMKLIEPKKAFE
Chain of SCRIB_4, Q14160 (Q14160 1095-1204): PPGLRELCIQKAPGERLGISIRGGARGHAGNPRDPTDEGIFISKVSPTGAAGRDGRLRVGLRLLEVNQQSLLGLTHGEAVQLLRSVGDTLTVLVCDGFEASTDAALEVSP
Chain of GIPC3, Q8TF64 (Q8TF64 107-202): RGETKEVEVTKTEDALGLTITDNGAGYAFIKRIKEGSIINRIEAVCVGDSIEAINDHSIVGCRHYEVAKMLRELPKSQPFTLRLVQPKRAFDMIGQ
Chain of MAGI1_3, Q96QZ7 (Q96QZ7 638-725): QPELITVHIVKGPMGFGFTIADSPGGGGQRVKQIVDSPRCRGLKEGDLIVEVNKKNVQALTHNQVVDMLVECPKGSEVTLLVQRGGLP
Chain of TJP1_1, Q07157 (Q07157 18-120): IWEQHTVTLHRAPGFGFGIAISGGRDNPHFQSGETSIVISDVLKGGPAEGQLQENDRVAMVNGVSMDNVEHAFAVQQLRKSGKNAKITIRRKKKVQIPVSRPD
Chain of LMO7, Q8WWI1 (Q8WWI1 1037-1138): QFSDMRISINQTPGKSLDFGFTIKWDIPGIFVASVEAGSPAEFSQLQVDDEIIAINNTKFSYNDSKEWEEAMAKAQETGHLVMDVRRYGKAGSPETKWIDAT
Chain of GRIP2_2, Q9C0E4 (Q9C0E4 137-245): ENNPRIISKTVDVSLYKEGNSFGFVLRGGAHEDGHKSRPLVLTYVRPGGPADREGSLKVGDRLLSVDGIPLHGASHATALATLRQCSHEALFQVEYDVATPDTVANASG
Chain of PARD3_1, Q8TEW0 (Q8TEW0 264-372): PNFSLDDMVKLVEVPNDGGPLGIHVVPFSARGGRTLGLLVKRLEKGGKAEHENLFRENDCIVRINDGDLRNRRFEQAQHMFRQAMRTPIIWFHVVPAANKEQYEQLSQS
Chain of MAST3, O60307 (O60307 945-1048): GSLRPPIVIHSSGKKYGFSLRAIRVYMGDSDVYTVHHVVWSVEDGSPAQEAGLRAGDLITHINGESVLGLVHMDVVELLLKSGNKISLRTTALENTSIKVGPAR
Chain of DLG5_2, Q8TDM6 (Q8TDM6 714-800): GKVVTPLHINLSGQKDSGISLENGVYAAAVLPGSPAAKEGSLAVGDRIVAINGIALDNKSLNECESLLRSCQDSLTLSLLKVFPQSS
Chain of DVL2, O14641 (O14641 260-359): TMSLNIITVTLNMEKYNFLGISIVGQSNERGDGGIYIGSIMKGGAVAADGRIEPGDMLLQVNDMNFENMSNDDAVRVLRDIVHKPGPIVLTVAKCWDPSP
Chain of MAGI3_6, Q5TCQ9 (Q5TCQ9 1014-1103): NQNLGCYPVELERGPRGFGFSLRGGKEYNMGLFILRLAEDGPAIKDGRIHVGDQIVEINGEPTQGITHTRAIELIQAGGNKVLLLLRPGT
Chain of MAGI3_4, Q5TCQ9 (Q5TCQ9 716-815): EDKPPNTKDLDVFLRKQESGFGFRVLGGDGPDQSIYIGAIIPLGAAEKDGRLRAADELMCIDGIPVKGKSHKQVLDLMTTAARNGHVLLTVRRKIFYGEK

- pKd (APBA3_1, O96018; [1]): below the threshold
- pKd (GIPC2, Q8TF65; [1]): below the threshold
Binder: TEAKLTETNA [MYO18A, Q92614]

- pKd (APBA3_1, O96018; [2]): below the threshold
- pKd (GIPC2, Q8TF65; [2]): 3.79
Binder: GQDSREETQL [KCNT2, Q6UVM3]

- pKd (APBA3_1, O96018; [2]): below the threshold
- pKd (GIPC2, Q8TF65; [2]): 3.54
Binder: TVASEKESVM [SLC1A5, Q15758]

- pKd (APBA3_1, O96018; [2]): below the threshold
- pKd (GIPC2, Q8TF65; [2]): 3.75
Binder: VLRLQSETSV [VANGL1, Q8TAA9]

The next lines start with the binder.

Binder: HTHSYIETHV [CNKSR2, Q8WXI2]
- pKd (APBA3_1, O96018; [1]): below the threshold
- pKd (GIPC2, Q8TF65; [1]): below the threshold

Binder: SVWLRKETRV [CYSLTR2, Q9NS75]
- pKd (APBA3_1, O96018; [2]): below the threshold
- pKd (DLG2_1, Q15700): 5.26
- pKd (DLG5_2, Q8TDM6): 4.71
- pKd (DVL2, O14641): below the threshold
- pKd (GIPC2, Q8TF65; [2]): below the threshold
- pKd (GIPC3, Q8TF64): below the threshold
- pKd (GRIP2_2, Q9C0E4): below the threshold
- pKd (LMO7, Q8WWI1): below the threshold
- pKd (MAGI1_3, Q96QZ7): 5.09
- pKd (MAGI3_4, Q5TCQ9): below the threshold
- pKd (MAGI3_6, Q5TCQ9): below the threshold
- pKd (MAST3, O60307): below the threshold
- pKd (MPDZ_11, O75970): below the threshold
- pKd (MPDZ_3, O75970): below the threshold
- pKd (MPP5, Q8N3R9): below the threshold
- pKd (PARD3_1, Q8TEW0): below the threshold
- pKd (PARD6G, Q9BYG4): below the threshold
- pKd (PDZD2_6, O15018): below the threshold
- pKd (PDZD7_2, Q9H5P4): below the threshold
- pKd (PTPN13_4, Q12923): below the threshold
- pKd (PTPN13_5, Q12923): below the threshold
- pKd (SCRIB_4, Q14160): 4.91
- pKd (SHROOM3, Q8TF72): below the threshold
- pKd (TJP1_1, Q07157): 4.78
- pKd (USH1C_1, Q9Y6N9): below the threshold

Binder: TLSLTDSSVDGIPPYR [AXIN1_int, O15169]
- pKd (APBA3_1, O96018; [3]): below the threshold
- pKd (GIPC2, Q8TF65; [3]): below the threshold
